# Reference: patent US20250255972A1, “METHOD OF TREATING UVEITIS WITH MULTIVALENT PROTEIN-HYALURONIC ACID POLYMER CONJUGATE” (Valitor, Inc., priority 2022, published 2025)
# Entries after “also recorded” stand apart in the source; their conditions may differ.
# B1: (SEQ ID NO:149)+HyA conjugate #12, valency 99 (other)
# VHH: QVQLVESGGGLVQPGGSLRLSCAASGGTFSSIIMAWFRQAPGKEREFVGAVSWSGGTTVYADSVKGRFTISRDNSKNTVYLQMNSLRPEDTAVYYCAARPYQKYNWASASYNVWGQGTLVTVSSAEAAAKEAAAKEAAAKAGC
# modifications: C-terminal cysteine thiol of the aH peptide linker joined through the MP2H organic linker to hyaluronic acid
# B2: (SEQ ID NO:150)+HyA conjugate #13, valency 102 (other)
# VHH: QVQLVESGGGLVQPGGSLRLSCAASGGTFSSIIMAWFRQAPGKEREFVAAISWSGGTTVYADSVKGRFTISRDNSKNTVYLQMNSLRPEDTAVYYCAARPYQKYNWASASYNVWGQGTLVTVSSAEAAAKEAAAKEAAAKAGC
# modifications: C-terminal cysteine thiol of the aH peptide linker joined through the MP2H organic linker to hyaluronic acid
# notes: also called Conjugate ID 13
# B3: Conjugate #10: (SEQ ID NO:104, anti-TNFα 3MUT VHH (mouse)-aH)+HyA (850 kDa) conjugate, MP2H linker, valency 96.5 (conjugate)
# VHH: QVQLQESGGGLVQAGGSLRLSCAASGGTFSSIIMAWFRQAPGKEREFVGAVSWSGGTTVYADSVKGRFTISRDSARKSVYLQMNSLKPEDTAVYYCAARPYQKYNWASASYNVWGQGTQVTVSSAEAAAKEAAAKEAAAKAGC
# modifications: hyaluronic acid 850 kDa conjugate, MP2H linker; anti-TNFalpha 3MUT VHH (mouse)- aH
# B4: Conjugate #6: (SEQ ID NO:104, anti-TNFα 3MUT VHH (mouse)-aH)+HyA (850 kDa) conjugate, MP2H linker, valency 51 (conjugate)
# VHH: QVQLQESGGGLVQAGGSLRLSCAASGGTFSSIIMAWFRQAPGKEREFVGAVSWSGGTTVYADSVKGRFTISRDSARKSVYLQMNSLKPEDTAVYYCAARPYQKYNWASASYNVWGQGTQVTVSSAEAAAKEAAAKEAAAKAGC
# modifications: hyaluronic acid 850 kDa conjugate via MP2H linker; anti-TNFalpha 3MUT VHH (mouse)- aH
# B5: Conjugate #5: (SEQ ID NO:103, anti-TNFα VHH (mouse)-aH)+HyA (850 kDa) conjugate, MP2H linker, valency 121 (conjugate)
# VHH: QVQLQDSGGGLVQAGGSLRLSCAASGGTFSSIIMAWFRQAPGKEREFVGAVSWSGGTTVYADSVLGRFEISRDSARKSVYLQMNSLKFPEDTAVYYCAARPYQKYNWASASYNVWGQGTQVTVSSAEAAAKEAAAKEAAAKAGC
# modifications: hyaluronic acid 850 kDa conjugate via MP2H linker; anti-TNFalpha VHH (mouse)- aH
# B6: Conjugate #7: (SEQ ID NO:104, anti-TNFα 3MUT VHH (mouse)-aH)+HyA (850 kDa) conjugate, MP2H linker, valency 98 (conjugate)
# VHH: QVQLQESGGGLVQAGGSLRLSCAASGGTFSSIIMAWFRQAPGKEREFVGAVSWSGGTTVYADSVKGRFTISRDSARKSVYLQMNSLKPEDTAVYYCAARPYQKYNWASASYNVWGQGTQVTVSSAEAAAKEAAAKEAAAKAGC
# modifications: hyaluronic acid 850 kDa conjugate via MP2H linker; anti-TNFalpha 3MUT VHH (mouse)- aH
# B7: Conjugate #12: (SEQ ID NO:149, Hu aTNFα 3MUT aH_CYS)+hyaluronic acid conjugate, MP2H linker, valency 99 (conjugate)
# VHH: QVQLVESGGGLVQPGGSLRLSCAASGGTFSSIIMAWFRQAPGKEREFVGAVSWSGGTTVYADSVKGRFTISRDNSKNTVYLQMNSLRPEDTAVYYCAARPYQKYNWASASYNVWGQGTLVTVSSAEAAAKEAAAKEAAAKAGC
# modifications: hyaluronic acid conjugate, MP2H linker; Hu_aTNFaMu_3MUT aH_CYS
# B8: Conjugate #13: (SEQ ID NO:150, Hu aTNFα 5MUT aH_CYS)+hyaluronic acid conjugate, MP2H linker, valency 102 (conjugate)
# VHH: QVQLVESGGGLVQPGGSLRLSCAASGGTFSSIIMAWFRQAPGKEREFVAAISWSGGTTVYADSVKGRFTISRDNSKNTVYLQMNSLRPEDTAVYYCAARPYQKYNWASASYNVWGQGTLVTVSSAEAAAKEAAAKEAAAKAGC
# modifications: hyaluronic acid conjugate, MP2H linker; Hu_aTNFaMu_5MUT aH_CYS
# How the values were obtained:
# [1] = test system: experimental autoimmune uveoretinitis (EAU) in rats; assay: Second rat EAU model, clinical score by slit lamp, Example 9; assay type: in vivo, Male Lewis rats; settings: FIG. 7A, ITV, triamcinolone (40 μg) or conjugate #10 (19 μg), one day after ITV treatment, vs vehicle
# Procedure: (§1) The efficacy of conjugate #10 was validated to provide a treatment effect that can sufficiently reduce the symptoms of uveitis. Male Lewis rats were divided into 4 groups (n=12 for EAU induced groups and n=8 for uninduced control) and randomized by weight. The groups received either conjugate #10 at 19 μg, triamcinolone (40 μg), or vehicle control. On Day 1, rats in the induced groups were immunized by a subcutaneous injection in each flank with 25 μg of interphotoreceptor retinoid-binding protein (IRBP) peptide R16 in 0.1 mL of complete Freund's adjuvant for 50 μg total. On days 4 and 8, rat eyes were treated bilaterally with a 5 μL intravitreal (ITV) injection of conjugate #10 or vehicle control, or 1 μL ITV injection of triamcinolone based on their assigned treatment. Prior to the start of the study and on days 3, 6, 10, 12 and 14, ocular inflammation was accessed by slit lamp microscopy and assigned a clinical EAU score of 0-4 based on the appearance of inflammation.
# [2] = test system: pro-inflammatory cytokines and inflammatory regulators in rat vitreous; assay: Cytokine analysis of rat vitreous 14 days after uveitis induction (Milliplex bead panel); assay type: in vivo, Male Lewis rats; settings: rat eyes 14 days after uveitis induction; ITV triamcinolone 40 μg or conjugate #10 19 μg
# Procedure: as §1
# On day 14, animals were euthanized and one eye from each animal was dissected into vitreous and aqueous humor to perform for cytokine analysis. After dissection the aqueous humor from each group was pooled and all tissues were flash frozen. A milliplex Rat Cytokine/Chemokine magnetic bead panel (Millipore Cat #RECYMAG65K27PMX) was used to assess the relative cytokine concentrations in the tissues according to the manufacturer's protocol. Briefly, the ocular tissues were thawed on ice and the sample volume was measured. Then, assay buffer was added to the samples to achieve a final volume of 55 μL for duplicate readings and mixed well. Next, 25 μL of samples, standards or controls was added to the assay plate, mixed with 25 μL of beads and incubated at room temperature for 2 hours. The wells were washed on a magnetic plate washer and incubated with 25 μL of detection antibodies for one hour and then 25 μL of Streptavadin-Phycoerythrin for 30 minutes. Wells were washed on a magnetic plate washer and 125 μL of Sheath Fluid Plus was added per well and then read on the Luminex. The amount of cytokine recovered from each sample was normalized to the volume of tissue recovered and plotted.
# [3] = molecular target: T1, Human TNFα, Avi and His tagged (Acro Biosystems TNA-H82E3) (human, UniProt P01375 77-233); assay: BLI (Gator), Avi-tagged TNFα on streptavidin probes, conjugate as analyte, 1:1 global fit
# T1 construct: Bought BLI ligand, loaded on streptavidin probes through the Avi tag; also called BLI ligand
# Human TNFα = molecular target: T2, Human TNFα (Homo sapiens, UniProt P01375); assay: Biolayer interferometry (BLI) binding kinetics, Human TNFα ligand; settings: purified conjugate
# T2 construct: Avi; His; purchased Acro Biosystems TNA-H82E3
# [4] = Hydrodynamic radius by dynamic light scattering (DLS); assay type: physicochemical; settings: 25° C.
# TNFα = assay: Long-term 37° C. stability, change in Kon by BLI; assay type: physicochemical; settings: FIG. 4B
# Procedure: (§2) We then used the top performers from the thermal stability experiments in a long-term 37° C. stability studies. The MVPs were synthesized under sterile conditions and diluted to around 0.4 mg/mL in a sterile filtered human vitreous mimetic buffer (see Table 10) or remained in formulation buffer. The samples were either filtered using sterile 0.2 or 5 μm spin filters before use or mixed with 0.010% sodium azide as an anti-microbial agent. Then, several 100-150 μL aliquots of each sample were added to wells of a sterile 96 well plate with one day 0 aliquot reserved at 4° C. The remaining wells were filled with a sterile filtered human vitreous buffer+0.01% sodium azide to minimize evaporation. The plate was incubated in a standard tissue culture incubator at 37° C. with 5% CO2. At discrete timepoints, one aliquot from each sample was removed from the plate under sterile conditions and analyzed. […] Then, the protein concentration was measured to adjust for any differences in volume that may have occurred. […] To monitor changes in radius over time, the samples were spun for 5 minutes at 5000 g to remove any large aggregates or dust particles and the Rh was measured using DLS methods described above except that the instrument is at 37° C. and without any sample dilution.
# [5] = Long-term 37° C. stability in vitreous mimetic buffer, radius by DLS; assay type: physicochemical; settings: FIG. 4C; after 35 days at 37° C. in vitreous mimetic buffer
# Procedure: as §2
# [6] = test system: experimental autoimmune uveoretinitis (EAU) in rats; assay: Rat experimental autoimmune uveoretinitis (EAU) model, Example 8; assay type: in vivo, Male Lewis rats; settings: vs vehicle
# Procedure: The efficacy of mu_anti-TNFα_aH_CYS MVPs were validated to provide a treatment effect that can sufficiently reduce the symptoms of uveitis. A rat model of experimental autoimmune uveoretinitis (EAU) was used as a model of chronic posterior uveitis in humans. This model was induced by systemic immunization with the uveitogenic interphotoreceptor retinoid-binding protein (IRBP), and symptoms of uveitis appeared after 9-11 days. Rats were treated intravitreally with 12.5 μg of mu_anti-TNFα_aH_CYS MVP (Conjugate #7). As a positive control, dexamethasone was used.
# Male Lewis rats were divided into 4 groups (n=8) and randomized by weight. […] On Day 1, rats were immunized by a subcutaneous injection at the base of the tail and in each thigh with 30 μg of bovine IRBP peptide R16 in 0.2 mL of Freund's adjuvant. On days 8 and 10, rat eyes were treated bilaterally with a 5 μL ITV injection of either dose of their assigned treatment. Prior to the start of the study and on days 7, 9, 11, 14, we assessed ocular inflammation by slit lamp microscopy and assigned a clinical EAU score of 0-4 based on the appearance of inflammation. On day 14, animals were euthanized, one eye from each animal was processed for histopathology, and assigned a score of 0-4 based on the appearance of inflammation and cell infiltration. EAU and histopathology were scored based on published standardized scoring systems.
# T2 sequence (P01375 77-233 limits assumed): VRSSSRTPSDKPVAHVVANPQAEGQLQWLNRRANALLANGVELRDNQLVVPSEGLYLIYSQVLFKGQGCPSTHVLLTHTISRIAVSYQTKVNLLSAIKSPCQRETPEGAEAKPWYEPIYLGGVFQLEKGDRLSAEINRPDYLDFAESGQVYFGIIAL
# T1 sequence (P01375 77-233 limits assumed): as above
molecule,measurement,setting,value
"C[C@]12C=CC(=O)C=C1CC[C@H]1[C@@H]3C[C@@H](O)[C@](O)(C(=O)CO)[C@@]3(C)C[C@H](O)[C@@]12F [Triamcinolone, triamcinolone, reference compound]","Average inflammation score (clinical EAU score, 0=none to 4=severe)",[1],decreased inflammation compared to the vehicle control
same,IFNγ concentration in the vitreous ± SD,[2],2.540 ± 1.804 ng/mL
same,IL-1α concentration in the vitreous ± SD,[2],1.321 ± 0.844 ng/mL
same,IL-1β concentration in the vitreous ± SD,[2],0.721 ± 0.445 ng/mL
same,IL-6 concentration in the vitreous ± SD,[2],19.936 ± 17.156 ng/mL
same,MCP-1 concentration in the vitreous ± SD,[2],2.705 ± 2.640 ng/mL
same,TNFα concentration in the vitreous ± SD,[2],0.046 ± 0.051 ng/mL
B1,Kd,[3],≤ 1 pM
B2,Kd,[3],≤ 1 pM
B3,Kd,Human TNFα,≤ 0.001 nM
same,"Average inflammation score (clinical EAU score, 0=none to 4=severe)",[1],comparable to triamcinolone; also recorded: decreased inflammation compared to the vehicle control
same,IFNγ concentration in the vitreous ± SD,[2],3.116 ± 1.436 ng/mL
same,IL-1α concentration in the vitreous ± SD,[2],1.511 ± 0.709 ng/mL
same,IL-1β concentration in the vitreous ± SD,[2],0.667 ± 0.271 ng/mL
same,IL-6 concentration in the vitreous ± SD,[2],25.565 ± 15.702 ng/mL
same,MCP-1 concentration in the vitreous ± SD,[2],3.843 ± 2.499 ng/mL
same,TNFα concentration in the vitreous ± SD,[2],0.058 ± 0.038 ng/mL
same,"Rh (nm, DLS)",[4],99.14 nm
B4,Kd,Human TNFα,≤ 0.001 nM
same,change in association constant of TNFα binding,TNFα; after 35 days at 37° C.,minimal change
same,conjugate size (DLS) as share of the original radius,[5],about 75%
same,"Rh (nm, DLS)",[4],76.8 nm
B5,Kd,Human TNFα,≤ 0.001 nM
same,change in association constant of TNFα binding,TNFα; after 5 days at 37° C.,dramatically decreased
B6,Kd,Human TNFα,≤ 0.001 nM
same,conjugate size (DLS) as share of the original radius,[5],about 75%
same,Average inflammation score (0=none to 4=severe),"[6]; FIG. 6A, rat EAU, ITV, or Conjugate #7 (12.5 μg), n=8, one day after ITV treatment",decreased inflammation compared to the vehicle control
same,Average histology inflammation score (0=none to 4=severe),"[6]; FIG. 6B, rats sacrificed 14 days after model induction, p<0.05",less inflamed than vehicle treated eyes
same,"Rh (nm, DLS)",[4],76.42 nm
B7,"Rh (nm, DLS)",[4],70.12 nm
B8,"Rh (nm, DLS)",[4],71.64 nm
